Data from patent US20260265780A1.

Target: CD8 (protein not named in Table 16)

B1: CD8 binder 97 (VHH) (VHH)
VHH: QVQLVESGGGLVQAGGSLRLSCAASGRTFSGYVMGWFRQAPGKQRKFVAAISRGGLSTSYADSVKGRFTISRDNAKNTVFLQMNTLKPEDTAVYYCAADRSDLYEITAASNIDSWGQGTLVTVSS
B1 gave a Highest Response (nm) of 0.465 nm, a Kd of 5.3 nM and a koff of 0.000272 s⁻¹. The kon was 51400 M⁻¹ s⁻¹.
